Experimental data from PMC11774805, “The C-terminal α-helix is crucial for the activity of the bacterial ABC transporter BmrA” (The Journal of Biological Chemistry, 2024).
Changes are numbered by the printed parent chain.

Target: the molecule itself
Assay: cross-linking + native gel or EMSA; blue native PAGE of purified BmrA wt and Cys variants; 0.25 mg/ml preincubated ± 100 uM DTT for 30 min at room temperature, then DDM to 1%; no ATP; 4 to 16% Bis-Tris gel; dimer to monomers

B1: BmrA A582C (natural protein, Bacillus subtilis strain 168, UniProt O06967 1-589, looked up)
chain: MPTKKQKSKSKLKPFFALVRRTNPSYGKLAFALALSVVTTLVSLLIPLLTKQLVDGFSMSNLSGTQIGLIALVFFVQAGLSAYATYALNYNGQKIISGLRELLWKKLIKLPVSYFDTNASGETVSRVTNDTMVVKELITTHISGFITGIISVIGSLTILFIMNWKLTLLVLVVVPLAALILVPIGRKMFSISRETQDETARFTGLLNQILPEIRLVKASNAEDVEYGRGKMGISSLFKLGVREAKVQSLVGPLISLVLMAALVAVIGYGGMQVSSGELTAGALVAFILYLFQIIMPMGQITTFFTQLQKSIGATERMIEILAEEEEDTVTGKQIENAHLPIQLDRVSFGYKPDQLILKEVSAVIEAGKVTAIVGPSGGGKTTLFKLLERFYSPTAGTIRLGDEPVDTYSLESWREHIGYVSQESPLMSGTIRENICYGLERDVTDAEIEKAAEMAYALNFIKELPNQFDTEVGERGIMLSGGQRQRIAIARALLRNPSILMLDEATSSLDSQSEKSVQQALEVLMEGRTTIVIAHRLSTVVDADQLLFVEKGEITGRGTHHELMASHGLYRDFAEQQLKMNCDLENKAG
notes: BmrA of Bacillus subtilis strain 168, full length, A582 replaced by Cys; Forms a disulfide-linked dimer without DTT; source: E. coli, purified in presence of detergent (DDM)
stoichiometry N: 2

B2: BmrA D583C (natural protein, Bacillus subtilis strain 168, UniProt O06967 1-589, looked up)
chain: B1 chain with C582A, D583C
notes: BmrA of Bacillus subtilis strain 168, full length, D583 replaced by Cys; Forms a disulfide-linked dimer without DTT; source: E. coli, purified in presence of detergent (DDM)
stoichiometry N: 2
